Laboratory results as given in the supplement of paper PMC10567573.

B1: SETD8 (parent)
chain: KKAQGKTQQNRKLTDFYPVRRSSR

Variants of: B1
Assay: protein stability index of a GFP-peptide fusion (GPS, HEK-293T) (PSI 1-6); higher = more stable
Conditions: c terminus: a fixed tail appended
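Further: lentivirally expressed fusions sorted by FACS into six bins by GFP to DsRed ratio, PSI derived from sequencing read proportions per bin multiplied by bin number.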

| Variant | protein stability index |
| --- | --- |
| KKAQGKTQQNRKLTDPYPVRRSSR [F16P] | 3.07 |
| KKAQGKTQQNRKLTDYYPVRRSSR [F16Y] | 3.29 |
| KKAQGKTQQNRKLTDEYPVRRSSR [F16E] | 4.51 |
| KKAQGKTQQNRKLTDDYPVRRSSR [F16D] | 2.58 |
| KKAQGKTQQNRKLTDHYPVRRSSR [F16H] | 2.33 |
| KKAQGKTQQNRKLTDTYPVRRSSR [F16T] | 3.17 |
| KKAQGKTQQNRKLTDNYPVRRSSR [F16N] | 4.28 |
| KKAQGKTQQNRKLTDCYPVRRSSR [F16C] | 2.71 |
| KKAQGKTQQNRKLTDAYPVRRSSR [F16A] | 2.54 |
| KKAQGKTQQNRKLTDIYPVRRSSR [F16I] | 2.99 |
| KKAQGKTQQNRKLTDGYPVRRSSR [F16G] | 2.74 |
| KKAQGKTQQNRKLTDSYPVRRSSR [F16S] | 3.07 |
| KKAQGKTQQNRKLTDQYPVRRSSR [F16Q] | 1.76 |
| KKAQGKTQQNRKLTDMYPVRRSSR [F16M] | 3.81 |
| KKAQGKTQQNRYLTDFYPVRRSSR [K12Y] | 3 |
| KKAQGKTQQNRKLTDFYIVRRSSR [P18I] | 2.66 |
| KKAQGKTQQNRKLTDFYYVRRSSR [P18Y] | 2.51 |
| KKAQGKTQQNRKLTDFYNVRRSSR [P18N] | 1.86 |
| KKAQGKTQQNRKLTDFYRVRRSSR [P18R] | 2.54 |
| KKAQGKTQQNRKLTDFYFVRRSSR [P18F] | 2.61 |
| KKAQGKTQQNRKLTDFYLVRRSSR [P18L] | 3.36 |
| KKAQGKTQQNRKLTDFYQVRRSSR [P18Q] | 1.74 |
| KKAQGKTQQNRKLTDFYWVRRSSR [P18W] | 3.18 |
| KKAQGKTQQNRKLTDFYCVRRSSR [P18C] | 2.47 |

| Variant | protein stability index |
| --- | --- |
| KKAQGKTQQNRKLTDFYAVRRSSR [P18A] | 3.16 |
| KKAQGKTQQNRKLTDFYTVRRSSR [P18T] | 3.77 |
| KKAQGKTQQNRKLTDFYMVRRSSR [P18M] | 3.82 |
| KKAQGKTQQNRKLTDFYDVRRSSR [P18D] | 3.38 |
| KKAQGKTQQNRKLTDFYPCRRSSR [V19C] | 3.26 |
| KKAQGKTQQNRKLTDFYPARRSSR [V19A] | 4.57 |
| KKAQGKTQQNRKLWDFYPVRRSSR [T14W] | 3.4 |
| KKAQGKTQQNRKLLDFYPVRRSSR [T14L] | 3.72 |
| KKAQGKTQQNRKLSDFYPVRRSSR [T14S] | 2.72 |
| KKAQGKTQQNRKLMDFYPVRRSSR [T14M] | 1.79 |
| KKAQGKTQQNRKLDDFYPVRRSSR [T14D] | 4.21 |
| KKAQGKTQQNRKLQDFYPVRRSSR [T14Q] | 3.33 |
| KKAQGKTQQNRKLGDFYPVRRSSR [T14G] | 2.68 |
| KKAQGKTQQNRKLNDFYPVRRSSR [T14N] | 3.49 |
| KKAQGKTQQNRKLRDFYPVRRSSR [T14R] | 3.11 |
| KKAQGKTQQNRKLVDFYPVRRSSR [T14V] | 3.67 |
| KKAQGKTQQNRKLIDFYPVRRSSR [T14I] | 2.63 |
| KKAQGKTQQNRKLEDFYPVRRSSR [T14E] | 4.32 |
| KKAQGKTQQNRKLADFYPVRRSSR [T14A] | 3.99 |
| KKAQGKTQQNRKLYDFYPVRRSSR [T14Y] | 2.65 |
| KKAQGKTQQNRKLHDFYPVRRSSR [T14H] | 3.1 |
| KKAQGKTQQNRKLPDFYPVRRSSR [T14P] | 2.4 |
| KKAQGKTQQNRKLTQFYPVRRSSR [D15Q] | 2.36 |
| KKAQGKTQQNRKLTYFYPVRRSSR [D15Y] | 2.77 |

| Variant | protein stability index |
| --- | --- |
| KKAQGKTQQNRKLTLFYPVRRSSR [D15L] | 2.87 |
| KKAQGKTQQNRKLTMFYPVRRSSR [D15M] | 2.43 |
| KKAQGKTQQNRKLTTFYPVRRSSR [D15T] | 3.5 |
| KKAQGKTQQNRKLTVFYPVRRSSR [D15V] | 2.72 |
| KKAQGKTQQNRKLTGFYPVRRSSR [D15G] | 3.23 |
| KKAQGKTQQNRKLTPFYPVRRSSR [D15P] | 3.1 |
| KKAQGKTQQNRKLTSFYPVRRSSR [D15S] | 3.12 |
| KKAQGKTQQNRKLTHFYPVRRSSR [D15H] | 2.42 |
| KKAQGKTQQNRKLTNFYPVRRSSR [D15N] | 2.92 |
| KKAQGKTQQNRKLTFFYPVRRSSR [D15F] | 2.74 |
| KKAQGKTQQNRKLTAFYPVRRSSR [D15A] | 2.85 |
| KKAQGKTQQNRKLTEFYPVRRSSR [D15E] | 4.29 |
| KKAQGKTQQNRKLTRFYPVRRSSR [D15R] | 3.62 |
| KKAQGKTQQNRKLTIFYPVRRSSR [D15I] | 3.18 |
| KKAQGKTQQNRKLTWFYPVRRSSR [D15W] | 4.09 |
| KKAQGKTQQNRKLTCFYPVRRSSR [D15C] | 2.52 |
| KKAQGKTQQNRKRTDFYPVRRSSR [L13R] | 5.53 |
| KKAQGKTQQNRKCTDFYPVRRSSR [L13C] | 4.07 |
| KKAQGKTQQNRKYTDFYPVRRSSR [L13Y] | 3.47 |
| KKAQGKTQQNRKPTDFYPVRRSSR [L13P] | 3.64 |
| KKAQGKTQQNRKDTDFYPVRRSSR [L13D] | 4.69 |
| KKAQGKTQQNRKKTDFYPVRRSSR [L13K] | 5.04 |
| KKAQGKTQQNRKFTDFYPVRRSSR [L13F] | 3.52 |
| KKAQGKTQQNRKATDFYPVRRSSR [L13A] | 2.67 |

| Variant | protein stability index |
| --- | --- |
| KKAQGKTQQNRKGTDFYPVRRSSR [L13G] | 3.42 |
| KKAQGKTQQNRKVTDFYPVRRSSR [L13V] | 2.79 |
| KKAQGKTQQNRKETDFYPVRRSSR [L13E] | 2.77 |
| KKAQGKTQQNRKWTDFYPVRRSSR [L13W] | 4.33 |
| KKAQGKTQQNRKNTDFYPVRRSSR [L13N] | 3.26 |
| KKAQGKTQQNRKHTDFYPVRRSSR [L13H] | 3.83 |
| KKAQGKTQQNRKSTDFYPVRRSSR [L13S] | 2.79 |
| KKAQGKTQQNRKQTDFYPVRRSSR [L13Q] | 3.79 |
| KKAQGKTQQNRKTTDFYPVRRSSR [L13T] | 3.51 |
| KKAQGKTQQNRKLTDFVPVRRSSR [Y17V] | 3.37 |
| KKAQGKTQQNRKLTDFLPVRRSSR [Y17L] | 2.84 |
| KKAQGKTQQNRKLTDFFPVRRSSR [Y17F] | 2.72 |
| KKAQGKTQQNRKLTDFNPVRRSSR [Y17N] | 3.09 |
| KKAQGKTQQNRKLTDFTPVRRSSR [Y17T] | 2.06 |
| KKAQGKTQQNRKLTDFCPVRRSSR [Y17C] | 3.58 |
| KKAQGKTQQNRKLTDFWPVRRSSR [Y17W] | 1.41 |
| KKAQGKTQQNRKLTDFQPVRRSSR [Y17Q] | 4.09 |
| KKAQGKTQQNRKLTDFKPVRRSSR [Y17K] | 4.5 |
| KKAQGKTQQNRKLTDFPPVRRSSR [Y17P] | 5.8 |
| KKAQGKTQQNRKLTDFEPVRRSSR [Y17E] | 3.39 |
| KKAQGKTQQNRKLTDFDPVRRSSR [Y17D] | 4.52 |
| KKAQGKTQQNRKLTDFMPVRRSSR [Y17M] | 3.05 |
